Source: patent publication EP2170953B1

Experiments:
[1] = molecular target: Aβ1-42 peptide, oligomer-enriched preparation; assay: ELISA assay 3, Ab 1:32 of 0.5 µg/ml
[2] = molecular target: Aβ1-42 peptide, monomer-enriched preparation; assay: ELISA assay 3, Ab 1:32 of 0.5 µg/ml
[3] = molecular target: Aβ1-42 peptide, high molecular weight (HMW) proto-fibrillar (PF) oligomer enriched preparation (human); assay: ELISA, Ab 1 µg/ml; proto-fibrils against LMW monomers (given without sign)
[4] = molecular target: Aβ1-42 peptide, oligomer-enriched preparation; assay: ELISA assay 1, Ab 1:32 of 0.5 µg/ml
[5] = molecular target: Aβ1-42 peptide, monomer-enriched preparation; assay: ELISA assay 1, Ab 1:32 of 0.5 µg/ml
[6] = molecular target: Aβ1-42 peptide, oligomer-enriched preparation; assay: ELISA assay 3, Ab 1:16 of 0.5 µg/ml
[7] = molecular target: Aβ1-42 peptide, monomer-enriched preparation; assay: ELISA assay 3, Ab 1:16 of 0.5 µg/ml
[8] = molecular target: Aβ1-42 peptide, oligomer-enriched preparation; assay: ELISA assay 3, Ab 1:128 of 0.5 µg/ml
[9] = molecular target: Aβ1-42 peptide, monomer-enriched preparation; assay: ELISA assay 3, Ab 1:128 of 0.5 µg/ml
[10] = molecular target: Aβ1-42 peptide, high molecular weight (HMW) proto-fibrillar (PF) oligomer enriched preparation (human); assay: ELISA on coated fraction, Ab 0.25 µg/ml
[11] = molecular target: Aβ1-42 peptide, low molecular weight (LMW) monomer preparation (human); assay: ELISA on coated fraction, Ab 0.25 µg/ml
Chain of Aβ1-42 peptide, low molecular weight (LMW) monomer preparation (human) (peptide, as listed by the source, form in doubt): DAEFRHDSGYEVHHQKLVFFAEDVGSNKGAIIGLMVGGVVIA

[12] = molecular target: Aβ1-42 peptide, oligomer-enriched preparation; assay: ELISA mean of 3, Ab 1:16 of 0.5 µg/ml
[13] = molecular target: Aβ1-42 peptide, monomer-enriched preparation; assay: ELISA mean of 3, Ab 1:16 of 0.5 µg/ml
[14] = molecular target: Aβ1-42 peptide, oligomer-enriched preparation; assay: ELISA assay 2, Ab 1:8 of 0.5 µg/ml
[15] = molecular target: Aβ1-42 peptide, oligomer-enriched preparation; assay: ELISA assay 1, Ab 1:16 of 0.5 µg/ml
[16] = molecular target: Aβ1-42 peptide, monomer-enriched preparation; assay: ELISA assay 1, Ab 1:16 of 0.5 µg/ml
[17] = molecular target: Aβ1-42 peptide, oligomer-enriched preparation; assay: ELISA assay 1, Ab 1:2 of 0.5 µg/ml
[18] = molecular target: Aβ1-42 peptide, monomer-enriched preparation; assay: ELISA assay 1, Ab 1:2 of 0.5 µg/ml
[19] = molecular target: Aβ1-42 peptide, oligomer-enriched preparation; assay: ELISA assay 3, Ab 1:1 of 0.5 µg/ml
[20] = molecular target: Aβ1-42 peptide, monomer-enriched preparation; assay: ELISA assay 3, Ab 1:1 of 0.5 µg/ml
[21] = molecular target: Aβ1-42 peptide, oligomer-enriched preparation; assay: ELISA mean of 3, Ab 1:2 of 0.5 µg/ml
[22] = molecular target: Aβ1-42 peptide, monomer-enriched preparation; assay: ELISA mean of 3, Ab 1:2 of 0.5 µg/ml
[23] = molecular target: Aβ1-42 peptide, oligomer-enriched preparation; assay: ELISA assay 1, Ab 1:128 of 0.5 µg/ml
[24] = molecular target: Aβ1-42 peptide, monomer-enriched preparation; assay: ELISA assay 1, Ab 1:128 of 0.5 µg/ml
[25] = molecular target: Aβ1-42 peptide, high molecular weight (HMW) proto-fibrillar (PF) oligomer enriched preparation (human); assay: ELISA on coated fraction, Ab 0.0313 µg/ml
[26] = molecular target: Aβ1-42 peptide, low molecular weight (LMW) monomer preparation (human); assay: ELISA on coated fraction, Ab 0.0313 µg/ml
[27] = molecular target: Aβ1-42 peptide, high molecular weight (HMW) proto-fibrillar (PF) oligomer enriched preparation (human); assay: ELISA, Ab 0.0078 µg/ml; proto-fibrils against LMW monomers (given without sign)
[28] = molecular target: Aβ1-42 peptide, oligomer-enriched preparation; assay: ELISA assay 2, Ab 1:128 of 0.5 µg/ml
[29] = molecular target: Aβ1-42 peptide, monomer-enriched preparation; assay: ELISA assay 2, Ab 1:128 of 0.5 µg/ml
[30] = molecular target: Aβ1-42 peptide, oligomer-enriched preparation; assay: ELISA mean of 3, Ab 1:32 of 0.5 µg/ml
[31] = molecular target: Aβ1-42 peptide, monomer-enriched preparation; assay: ELISA mean of 3, Ab 1:32 of 0.5 µg/ml
[32] = molecular target: Aβ1-42 peptide, high molecular weight (HMW) proto-fibrillar (PF) oligomer enriched preparation (human); assay: ELISA on coated fraction, Ab 0.0156 µg/ml
[33] = molecular target: Aβ1-42 peptide, low molecular weight (LMW) monomer preparation (human); assay: ELISA on coated fraction, Ab 0.0156 µg/ml
[34] = molecular target: Aβ1-42 peptide, high molecular weight (HMW) proto-fibrillar (PF) oligomer enriched preparation (human); assay: ELISA, Ab 0.5 µg/ml; proto-fibrils against LMW monomers (given without sign)
[35] = molecular target: Aβ1-42 peptide, oligomer-enriched preparation; assay: ELISA mean of 3, Ab 1:8 of 0.5 µg/ml
[36] = molecular target: Aβ1-42 peptide, high molecular weight (HMW) proto-fibrillar (PF) oligomer enriched preparation (human); assay: ELISA, Ab 0.125 µg/ml; proto-fibrils against LMW monomers (given without sign)
[37] = molecular target: Aβ1-42 peptide, oligomer-enriched preparation; assay: ELISA assay 2, Ab 1:32 of 0.5 µg/ml
[38] = molecular target: Aβ1-42 peptide, monomer-enriched preparation; assay: ELISA assay 2, Ab 1:32 of 0.5 µg/ml
[39] = molecular target: Aβ1-42 peptide, oligomer-enriched preparation; assay: ELISA assay 2, Ab 1:2 of 0.5 µg/ml
[40] = molecular target: Aβ1-42 peptide, monomer-enriched preparation; assay: ELISA assay 2, Ab 1:2 of 0.5 µg/ml
[41] = molecular target: Aβ1-42 peptide, oligomer-enriched preparation; assay: ELISA assay 1, Ab 1:1 of 0.5 µg/ml
[42] = molecular target: Aβ1-42 peptide, monomer-enriched preparation; assay: ELISA assay 1, Ab 1:1 of 0.5 µg/ml

Chain of Aβ1-42 peptide, high molecular weight (HMW) proto-fibrillar (PF) oligomer enriched preparation (human) (peptide, as listed by the source, form in doubt): as above
Chain of Aβ1-42 peptide, monomer-enriched preparation (peptide, as listed by the source, form in doubt): as above
Chain of Aβ1-42 peptide, oligomer-enriched preparation (peptide, as listed by the source, form in doubt): as above

6E10 control antibody
O.D. [1]: 1.4 O.D.
O.D. [2]: 1.54 O.D.
O.D. difference [3]: 0.13 O.D.
O.D. [4]: 1.27 O.D.
O.D. [5]: 1.18 O.D.
O.D. [6]: 2.07 O.D.
O.D. [7]: 2.23 O.D.
O.D. [8]: 0.66 O.D.
O.D. [9]: 0.86 O.D.
O.D. [10]: 1.44 O.D.
O.D. [11]: 1.56 O.D.
O.D. (mean) [12]: 1.92 O.D.
O.D. (mean) [13]: 1.98 O.D.
O.D. [14]: 2.99 O.D.
O.D. [15]: 1.78 O.D.
O.D. [16]: 1.78 O.D.
O.D. [17]: 3.39 O.D.
O.D. [18]: 3.3 O.D.
O.D. [19]: 3.89 O.D.
O.D. [20]: 4.04 O.D.
O.D. (mean) [21]: 3.59 O.D.
O.D. (mean) [22]: 3.59 O.D.
O.D. [23]: 0.62 O.D.
O.D. [24]: 0.64 O.D.
O.D. [25]: 0.286 O.D.
O.D. [26]: 0.329 O.D.
O.D. difference [27]: 0.02 O.D.
O.D. [28]: 0.61 O.D.
O.D. [29]: 0.75 O.D.
O.D. (mean) [30]: 1.32 O.D.
O.D. (mean) [31]: 1.36 O.D.
O.D. [32]: 0.201 O.D.
O.D. [33]: 0.207 O.D.
O.D. difference [34]: 0.13 O.D.
O.D. (mean) [35]: 2.98 O.D.
O.D. difference [36]: 0.14 O.D.
O.D. [37]: 1.3 O.D.
O.D. [38]: 1.34 O.D.
O.D. [39]: 3.55 O.D.
O.D. [40]: 3.48 O.D.
O.D. [41]: 3.36 O.D.
O.D. [42]: 3.67 O.D.
